T1: biotinylated human BCMA-Fc, Avitag recombinant protein (ACRO Biosystems, #BC7-H82F0) (human, UniProt Q02223 1-54, biotinylated (Avitag))
T1 construct: extracellular domain; Bought protein; also called huBCMA.Fc; recombinant human BCMA-ECD-Fc
T1 sequence (looked up): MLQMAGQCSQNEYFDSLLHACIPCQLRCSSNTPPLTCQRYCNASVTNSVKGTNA

T2: human BCMA on NCI-H929 cells (ATCC, CRL-9068) (human, UniProt Q02223 1-184)
T2 sequence (looked up): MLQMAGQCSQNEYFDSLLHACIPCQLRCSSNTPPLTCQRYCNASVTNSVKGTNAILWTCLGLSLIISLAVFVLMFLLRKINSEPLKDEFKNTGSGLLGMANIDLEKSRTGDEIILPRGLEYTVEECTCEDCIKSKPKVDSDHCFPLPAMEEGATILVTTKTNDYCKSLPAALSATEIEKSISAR


Experiments:
[1] = target: T3, cynomolgus monkey BCMA (ACRO Biosystems, #BCA-C82F4) (cynomolgus monkey, UniProt A0A2K5UD97 1-53); assay: BLI (Octet Red96e), cyBCMA.Fc on SA sensor, 1:1 global fitting
T3 construct: Bought protein; also called cyBCMA.Fc

[2] = target: T3, cynomolgus monkey BCMA (ACRO …); assay: BLI; KD for cynomolgus monkey BCMA divided by KD for human BCMA
[3] = target: T4, human CD3 (TCR/CD3 complex) on human T cells (human, UniProt P07766 23-207); assay: flow cytometry (FACS) on human T cells, Experiment 3
T4 construct: whole, on cells

[4] = target: T5, cynomolgus monkey CD3 (TCR/CD3 complex) on cynomolgus monkey T cells (cynomolgus monkey); assay: flow cytometry (FACS) on cynomolgus monkey T cells
T5 construct: whole, on cells

[5] = target: T1, biotinylated human BCMA-Fc, Avitag …; assay: BLI (Octet Red96e), biotinylated BCMA-Fc on SA sensor, 1:1 global fitting;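 also: Anti-BCMA antibodies analysed as binding partners of the captured BCMA antigen, with reference signals removed by double referencing before kinetic fitting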
[6] = target: T2, human BCMA on NCI-H929 cells (ATCC, …); assay: cell-based or functional assay
[7] = target: T2, human BCMA on NCI-H929 cells (ATCC, …); assay: cell-based or functional assay; remark: listed apart in the source
[8] = target: T2, human BCMA on NCI-H929 cells (ATCC, …); assay: cell-based or functional assay; remark: listed apart in the source

T4 sequence (P07766 23-207, one chain of several): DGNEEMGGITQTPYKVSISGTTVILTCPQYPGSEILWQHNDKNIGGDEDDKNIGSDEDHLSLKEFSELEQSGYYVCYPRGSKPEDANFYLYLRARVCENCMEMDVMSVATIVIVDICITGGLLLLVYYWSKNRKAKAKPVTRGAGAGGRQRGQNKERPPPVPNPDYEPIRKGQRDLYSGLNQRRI
T3 sequence (A0A2K5UD97 entry or part of it): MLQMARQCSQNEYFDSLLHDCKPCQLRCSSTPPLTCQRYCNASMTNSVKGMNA
T5 sequence (Q95LI5 22-198, one chain of several): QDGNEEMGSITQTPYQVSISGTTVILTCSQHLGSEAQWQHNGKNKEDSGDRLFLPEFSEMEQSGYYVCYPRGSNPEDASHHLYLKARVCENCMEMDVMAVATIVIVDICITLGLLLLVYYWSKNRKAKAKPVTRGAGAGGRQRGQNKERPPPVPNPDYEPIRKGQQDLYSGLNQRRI

| Binder | Kd [1] [nM] | koff [1] [s⁻¹] | kon [1] [M⁻¹ s⁻¹] | KD ratio (cy BCMA/hu BCMA) [2] | Maximum MFI [3] [MFI] | Maximum MFI [4] [MFI] | Kd [5] [nM] | koff [5] [s⁻¹] | kon [5] [M⁻¹ s⁻¹] | IFN-γ release, EC50 [6] [nM] | IFN-γ release, Maximum [6] [pg/mL] | IL-2 release, EC50 [6] [nM] | IL-2 release, Maximum [6] [pg/mL] | IL-6 release, EC50 [6] [nM] | IL-6 release, Maximum [6] [pg/mL] | IL-10 release, EC50 [6] [nM] | IL-10 release, Maximum [6] [pg/mL] | NCI-H929 killing, EC50 [6] [nM] | NCI-H929 killing, Maximum killing rate % [6] [%] | TNF-α release, EC50 [6] [nM] | other results |
| --- | --- | --- | --- | --- | --- | --- | --- | --- | --- | --- | --- | --- | --- | --- | --- | --- | --- | --- | --- | --- | --- |
| PR002895 (bispecific antibody, human IgG1, lambda, L234A L235A) light: QAVVTQEPSLTVSPGGTVTLTCRSSTGAVTTSNYANWVQQKPGQAPRGLIGGTNKRAPWTPARFSGSLLGDKAALTLLGAQPEDEAEYFCALWYSNLWVFGGGTKLTVLGQPKAAPSVTLFPPSSEELQANKATLVCLISDFYPGAVTVAWKADSSPVKAGVETTTPSKQSNNKYAASSYLSLTPEQWKSHRSYSCQVTHEGSTVEKTVAPTECS heavy: not shown EVQLVETGGGLIQPGGSLRLSCAASGFTVSDNYMTWVRQAPGKGLEWVSVIFSGGNTYYADSVKGRFTISRDNAKNTLYLQMNSLRAEDTALYYCARRNYDDTRGTDVFDIWGQGTMVTVSSGGGGSGGGGSGGGGSEVQLVETGGGLIQPGGSLRLSCAASGFTVSDNYMTWVRQAPGKGLEWVSVIFSGGNTYYADSVKGRFTISRDNAKNTLYLQMNSLRAEDTALYYCARRNYDDTRGTDVFDIWGQGTMVTVSSASEPKSSDKTHTCPPCPAPEAAGGPSVFLFPPKPKDTLMISRTPEVTCVVVDVSHEDPEVKFNWYVDGVEVHNAKTKPREEQYNSTYRVVSVLTVLHQDWLNGKEYKCKVSNKALPAPIEKTISKAKGQPREPQVCTLPPSREEMTKNQVSLSCAVKGFYPSDIAVEWESNGQPENNYKTTPPVLDSDGSFFLVSKLTVDKSRWQQGNVFSCSVMHEALHNHYTQKSLSLSPGK | 0.272 | 0.000242 | 890000 | 1.38 | 322000 | 18600 | 0.197 | 8.11e-05 | 412000 | 0.0223 | 1440 | 0.0211 | 100 | 0.00839 | 118 | 0.0134 | 240 | 0.00293 | 57.9 | 0.00818 | TNF-α release, Maximum [6]: 1280 pg/mL |
| PR002953 (bispecific antibody, human IgG1, lambda, L234A L235A) light: QAVVTQEPSLTVSPGGTVTLTCRSSTGAVTTSNYANWVQQKPGQAPRGLIGGTNKRAPWTPARFSGSLLGDKAALTLLGAQPEDEAEYFCALWYSNLWVFGGGTKLTVLGQPKAAPSVTLFPPSSEELQANKATLVCLISDFYPGAVTVAWKADSSPVKAGVETTTPSKQSNNKYAASSYLSLTPEQWKSHRSYSCQVTHEGSTVEKTVAPTECS heavy: not shown EVQLVETGGGLIQPGGSLRLSCAASGFTVSDNYMTWVRQAPGKGLEWVSVIFSGGNTYYADSVKGRFTISRDNAKNTLYLQMNSLRAEDTALYYCARRNYDDTRGTDVFDIWGQGTMVTVSSGGGGSGGGGSGGGGSEVQLVETGGGLIQPGGSLRLSCAASGFTVSDNYMTWVRQAPGKGLEWVSVIFSGGNTYYADSVKGRFTISRDNAKNTLYLQMNSLRAEDTALYYCARRNYDDTRGTDVFDIWGQGTMVTVSSASEPKSSDKTHTCPPCPAPEAAGGPSVFLFPPKPKDTLMISRTPEVTCVVVDVSHEDPEVKFNWYVDGVEVHNAKTKPREEQYNSTYRVVSVLTVLHQDWLNGKEYKCKVSNKALPAPIEKTISKAKGQPREPQVCTLPPSREEMTKNQVSLSCAVKGFYPSDIAVEWESNGQPENNYKTTPPVLDSDGSFFLVSKLTVDKSRWQQGNVFSCSVMHEALHNHYTQKSLSLSPGK | 0.195 | 7.12e-05 | 365000 | 0.87 | 17000 | 9710 | 0.225 | 0.000107 | 474000 | 0.212 | 640 | 0.795 | 23.6 | 0.128 | 68.5 | 0.208 | 129 | 0.047 | 57.5 | 0.197 | TNF-α release, Maximum [6]: 894 pg/mL |
| PR003178 (bispecific antibody, human IgG1, lambda, L234A L235A) light: QAVVTQEPSLTVSPGGTVTLTCRSSTGAVTTSNYANWVQQKPGQAPRGLIGGTNKRAPWTPARFSGSLLGDKAALTLLGAQPEDEAEYFCALWYSNLWVFGGGTKLTVLGQPKAAPSVTLFPPSSEELQANKATLVCLISDFYPGAVTVAWKADSSPVKAGVETTTPSKQSNNKYAASSYLSLTPEQWKSHRSYSCQVTHEGSTVEKTVAPTECS heavy: not shown EVQLVETGGGLIQPGGSLRLSCAASGFTVSDNYMTWVRQAPGKGLEWVSVIFSGGNTYYADSVKGRFTISRDNAKNTLYLQMNSLRAEDTALYYCARRNYDDTRGTDVFDIWGQGTMVTVSSGGGGSGGGGSGGGGSEVQLVETGGGLIQPGGSLRLSCAASGFTVSDNYMTWVRQAPGKGLEWVSVIFSGGNTYYADSVKGRFTISRDNAKNTLYLQMNSLRAEDTALYYCARRNYDDTRGTDVFDIWGQGTMVTVSSASEPKSSDKTHTCPPCPAPEAAGGPSVFLFPPKPKDTLMISRTPEVTCVVVDVSHEDPEVKFNWYVDGVEVHNAKTKPREEQYNSTYRVVSVLTVLHQDWLNGKEYKCKVSNKALPAPIEKTISKAKGQPREPQVCTLPPSREEMTKNQVSLSCAVKGFYPSDIAVEWESNGQPENNYKTTPPVLDSDGSFFLVSKLTVDKSRWQQGNVFSCSVMHEALHNHYTQKSLSLSPGK | 0.319 | 0.000262 | 822000 | 1.35 | 23900 | 10700 | 0.236 | 0.000117 | 494000 | 0.0595 | 1210 | 0.175 | 101 | 0.0448 | 89.7 | 0.104 | 322 | 0.0102 | 56.8 | 0.0281 | Killing EC50 (nM), PBMC + NCI-H929, + 10 ng/mL sBAFF [7]: 0.005 nM; Killing EC50 (nM), PBMC + NCI-H929, + 10 ng/ml sAPRIL [7]: 0.009 nM; Killing EC50 (nM), PBMC + NCI-H929, + 100 ng/mL sAPRIL [7]: 0.011 nM; Killing EC50 (nM), PBMC + NCI-H929, + 100 ng/mL sBAFF [7]: 0.008 nM; Killing EC50 (nM), PBMC + NCI-H929, no soluble ligand [7]: 0.007 nM; Killing EC50 (nM), PBMC + NCI-H929, + 62.5 ng/ml sBCMA [8]: 0.009 nM; Killing EC50 (nM), PBMC + NCI-H929, + 125 ng/mL sBCMA [8]: 0.014 nM; Killing EC50 (nM), PBMC + NCI-H929, + 250 ng/ml sBCMA [8]: 0.065 nM; Killing EC50 (nM), PBMC + NCI-H929, + 500 ng/ml sBCMA [8]: 0.12 nM; Killing EC50 (nM), PBMC + NCI-H929, no sBCMA [8]: 0.005 nM; TNF-α release, Maximum [6]: 1330 pg/mL |
